Laboratory results from patent US8647863.

Tested on: ParA resolvase
Experiment: cell_activity
Settings: complete recombination of pHCNparA and pSIPHCNparA into minicircle and miniplasmid 30 min after arabinose induction in E. coli; about 50% when resolvase was …

For “ParA resolution sites res1/res2 (in plasmids pHCNparA, pSIPHCNparA, pSIPresHCN)”, the activity was 100%.
